One substance from patent publication US20140141454A1 can be followed below.

The target in this assay is human EpCAM immobilized with paraformaldehyde (on PFA-treated MCF-7 or PC-3 cells) (human) (UniProt P16422). Description: liquid-phase ELISA on PC-3 cells in suspension, PFA-treated against untreated.
UniProt P16422, sequence (P16422 24-314 limits assumed): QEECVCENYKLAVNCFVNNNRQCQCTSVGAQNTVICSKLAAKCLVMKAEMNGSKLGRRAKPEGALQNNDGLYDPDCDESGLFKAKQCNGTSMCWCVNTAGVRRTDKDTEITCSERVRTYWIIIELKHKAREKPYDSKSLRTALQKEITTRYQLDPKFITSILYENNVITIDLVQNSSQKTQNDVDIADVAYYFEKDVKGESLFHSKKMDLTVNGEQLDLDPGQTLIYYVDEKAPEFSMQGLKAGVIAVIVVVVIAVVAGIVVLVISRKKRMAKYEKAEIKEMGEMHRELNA

Take HEA-125 anti-EpCAM monoclonal antibody: the fold change of ELISA signal after 4% PFA treatment was < 1.5 fold.
